Patent US20030175270

Columns and labels:
[1] = target: Lyn immunoprecipitated from BMMC lysates (UniProt P25911)
[2] = target: JAK1 immunoprecipitated from BMMC lysates (UniProt P52332)
[3] = target: STAT5 immunoprecipitated from BMMC lysates (UniProt Q9JIA0)
[4] = target: JAK2 immunoprecipitated from BMMC lysates (tyrosine-phosphorylated) (UniProt Q62120)
[5] = target: Tyk2 immunoprecipitated from macrophage lysates (UniProt Q9R117)
[6] = target: STAT3 immunoprecipitated from BMMC lysates (UniProt P42227)
Chain of STAT3 immunoprecipitated from BMMC lysates (P42227 2-770): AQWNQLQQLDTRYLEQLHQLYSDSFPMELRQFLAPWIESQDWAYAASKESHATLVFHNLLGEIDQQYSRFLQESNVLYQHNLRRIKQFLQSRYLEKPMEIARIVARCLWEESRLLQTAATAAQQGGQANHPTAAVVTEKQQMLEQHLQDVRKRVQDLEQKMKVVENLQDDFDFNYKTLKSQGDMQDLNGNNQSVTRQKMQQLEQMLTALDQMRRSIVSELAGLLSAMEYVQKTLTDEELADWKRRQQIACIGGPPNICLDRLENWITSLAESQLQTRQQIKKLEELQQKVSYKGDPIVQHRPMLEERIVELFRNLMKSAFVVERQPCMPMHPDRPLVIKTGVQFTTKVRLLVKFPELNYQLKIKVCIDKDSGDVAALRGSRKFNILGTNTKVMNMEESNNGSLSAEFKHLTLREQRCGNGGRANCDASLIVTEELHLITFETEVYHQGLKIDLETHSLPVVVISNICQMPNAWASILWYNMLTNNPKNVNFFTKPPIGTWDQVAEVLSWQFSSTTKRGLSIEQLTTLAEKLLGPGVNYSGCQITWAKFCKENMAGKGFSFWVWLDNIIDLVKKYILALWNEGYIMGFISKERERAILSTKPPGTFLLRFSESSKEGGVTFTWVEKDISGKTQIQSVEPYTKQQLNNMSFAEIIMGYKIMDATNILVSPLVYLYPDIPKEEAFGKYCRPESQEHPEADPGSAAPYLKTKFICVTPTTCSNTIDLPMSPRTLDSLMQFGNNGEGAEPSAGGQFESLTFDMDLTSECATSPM

Chain of JAK2 immunoprecipitated from BMMC lysates (tyrosine-phosphorylated) (Q62120 whole entry): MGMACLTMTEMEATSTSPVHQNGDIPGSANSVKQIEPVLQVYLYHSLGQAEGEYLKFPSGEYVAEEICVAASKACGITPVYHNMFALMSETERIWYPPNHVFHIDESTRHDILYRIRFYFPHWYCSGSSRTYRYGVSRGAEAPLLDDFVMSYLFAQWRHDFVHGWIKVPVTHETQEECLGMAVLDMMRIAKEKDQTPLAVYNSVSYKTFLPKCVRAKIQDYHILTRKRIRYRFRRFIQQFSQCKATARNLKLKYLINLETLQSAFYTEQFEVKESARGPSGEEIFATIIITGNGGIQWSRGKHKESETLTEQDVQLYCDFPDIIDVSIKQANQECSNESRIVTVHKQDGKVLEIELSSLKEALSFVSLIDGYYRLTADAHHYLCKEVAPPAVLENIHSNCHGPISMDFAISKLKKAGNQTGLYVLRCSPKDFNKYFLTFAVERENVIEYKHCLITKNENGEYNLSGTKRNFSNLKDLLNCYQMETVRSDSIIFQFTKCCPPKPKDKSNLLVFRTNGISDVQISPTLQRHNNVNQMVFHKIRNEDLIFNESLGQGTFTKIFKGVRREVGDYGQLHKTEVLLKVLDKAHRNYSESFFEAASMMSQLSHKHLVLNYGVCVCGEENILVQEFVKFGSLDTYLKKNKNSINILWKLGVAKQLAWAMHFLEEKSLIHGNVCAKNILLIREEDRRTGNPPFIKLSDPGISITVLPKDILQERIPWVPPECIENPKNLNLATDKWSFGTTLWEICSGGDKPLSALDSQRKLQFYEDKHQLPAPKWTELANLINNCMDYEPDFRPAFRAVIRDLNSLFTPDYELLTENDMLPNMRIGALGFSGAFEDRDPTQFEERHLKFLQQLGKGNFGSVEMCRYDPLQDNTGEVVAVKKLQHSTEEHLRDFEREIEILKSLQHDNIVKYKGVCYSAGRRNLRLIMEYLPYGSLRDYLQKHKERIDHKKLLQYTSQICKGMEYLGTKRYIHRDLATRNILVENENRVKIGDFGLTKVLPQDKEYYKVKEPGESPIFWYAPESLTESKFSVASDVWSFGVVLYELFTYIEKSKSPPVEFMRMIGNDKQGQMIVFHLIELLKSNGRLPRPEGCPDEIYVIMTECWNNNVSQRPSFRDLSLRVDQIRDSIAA
Chain of JAK1 immunoprecipitated from BMMC lysates (P52332 whole entry): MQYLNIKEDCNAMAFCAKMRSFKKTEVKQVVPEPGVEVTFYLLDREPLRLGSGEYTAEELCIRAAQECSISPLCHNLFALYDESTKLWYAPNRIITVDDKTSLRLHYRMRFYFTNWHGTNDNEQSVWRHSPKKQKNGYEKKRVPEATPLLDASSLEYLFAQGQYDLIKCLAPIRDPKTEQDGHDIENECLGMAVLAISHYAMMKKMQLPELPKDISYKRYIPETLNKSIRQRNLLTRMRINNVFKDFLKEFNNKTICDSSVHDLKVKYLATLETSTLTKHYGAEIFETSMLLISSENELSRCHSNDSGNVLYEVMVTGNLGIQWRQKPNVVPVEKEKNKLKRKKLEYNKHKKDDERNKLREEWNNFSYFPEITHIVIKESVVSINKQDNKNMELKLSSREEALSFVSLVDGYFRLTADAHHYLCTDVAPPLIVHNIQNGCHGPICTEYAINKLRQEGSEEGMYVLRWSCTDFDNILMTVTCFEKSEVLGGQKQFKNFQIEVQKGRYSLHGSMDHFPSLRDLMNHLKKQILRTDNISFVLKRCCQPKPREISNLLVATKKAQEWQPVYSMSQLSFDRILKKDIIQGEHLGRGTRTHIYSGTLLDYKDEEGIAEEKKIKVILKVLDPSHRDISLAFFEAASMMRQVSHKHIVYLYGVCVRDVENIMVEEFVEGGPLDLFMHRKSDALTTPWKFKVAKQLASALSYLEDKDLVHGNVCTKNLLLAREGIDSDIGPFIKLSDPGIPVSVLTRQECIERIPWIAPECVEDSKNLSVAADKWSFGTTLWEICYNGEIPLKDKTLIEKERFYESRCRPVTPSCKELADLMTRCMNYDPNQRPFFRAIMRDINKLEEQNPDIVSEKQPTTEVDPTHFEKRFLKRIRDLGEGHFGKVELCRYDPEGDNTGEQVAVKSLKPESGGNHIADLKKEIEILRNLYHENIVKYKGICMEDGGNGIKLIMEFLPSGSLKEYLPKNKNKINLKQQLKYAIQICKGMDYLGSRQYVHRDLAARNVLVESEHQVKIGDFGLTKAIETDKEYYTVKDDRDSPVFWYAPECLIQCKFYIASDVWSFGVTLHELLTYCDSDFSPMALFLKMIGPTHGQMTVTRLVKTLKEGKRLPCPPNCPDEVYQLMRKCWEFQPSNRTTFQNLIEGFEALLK
Chain of Lyn immunoprecipitated from BMMC lysates (P25911 2-512): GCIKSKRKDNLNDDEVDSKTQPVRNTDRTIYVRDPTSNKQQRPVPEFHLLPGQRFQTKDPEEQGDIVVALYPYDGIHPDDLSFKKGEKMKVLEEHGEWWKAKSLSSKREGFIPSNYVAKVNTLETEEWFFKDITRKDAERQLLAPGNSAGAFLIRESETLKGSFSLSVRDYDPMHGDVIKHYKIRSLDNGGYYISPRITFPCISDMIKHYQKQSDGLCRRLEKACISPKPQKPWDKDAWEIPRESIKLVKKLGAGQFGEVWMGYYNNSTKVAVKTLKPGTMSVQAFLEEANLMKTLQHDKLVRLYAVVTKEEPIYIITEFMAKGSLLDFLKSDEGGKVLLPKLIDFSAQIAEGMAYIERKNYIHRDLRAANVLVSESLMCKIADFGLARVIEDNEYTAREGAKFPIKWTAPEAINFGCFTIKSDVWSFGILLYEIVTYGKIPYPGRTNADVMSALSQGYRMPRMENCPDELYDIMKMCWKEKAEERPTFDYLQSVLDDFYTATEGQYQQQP

Substance | tyrosine dephosphorylation in vitro (phosphatase assay, immunoblot) [1] | dephosphorylation of critical tyrosine residues in vitro (site-specific phospho-specific antibodies) [2] | tyrosine dephosphorylation in vitro (phosphatase assay, immunoblot) [3] | dephosphorylation of critical tyrosine residues in vitro (site-specific phospho-specific antibodies) [4] | tyrosine dephosphorylation in vitro (phosphatase assay, immunoblot) [4] | dephosphorylation of critical tyrosine residues in vitro (site-specific phospho-specific antibodies) [5] | tyrosine dephosphorylation in vitro (phosphatase assay, immunoblot) [6] | tyrosine dephosphorylation in vitro (phosphatase assay) [4]
recombinant CD45 (intracellular dual PTPase domains, Mr 97K, catalytic D1 and non-catalytic D2, lacking extracellular regions) | rCD45 dephosphorylated Lyn in a dose-dependent manner | rCD45 does indeed dephosphorylate the critical tyrosine residues of JAK1, JAK2, and Tyk2 in vitro | tyrosine dephosphorylation of STAT3 (FIGS. 3A and 3B) and STAT5 did not occur after incubation with rCD45, even at high concentrations of rCD45 | rCD45 does indeed dephosphorylate the critical tyrosine residues of JAK1, JAK2, and Tyk2 in vitro | rCD45 did, however, dephosphorylate JAK2 in vitro | rCD45 does indeed dephosphorylate the critical tyrosine residues of JAK1, JAK2, and Tyk2 in vitro | tyrosine dephosphorylation of STAT3 (FIGS. 3A and 3B) and STAT5 did not occur after incubation with rCD45, even at high concentrations of rCD45 | –
PTPase-dead rCD45 (D1:C828S mutant) | – | – | – | – | – | – | – | PTPase-dead rCD45 (D1:C828S mutant) did not dephosphorylate JAK2
